# Data: US20140275489A1 (Regeneron, published 2014)
# T1: full-length human APLNR (amino acids 1-380 of accession number NP-005152.1) (human, UniProt P35414 1-380)
# T1 sequence (looked up): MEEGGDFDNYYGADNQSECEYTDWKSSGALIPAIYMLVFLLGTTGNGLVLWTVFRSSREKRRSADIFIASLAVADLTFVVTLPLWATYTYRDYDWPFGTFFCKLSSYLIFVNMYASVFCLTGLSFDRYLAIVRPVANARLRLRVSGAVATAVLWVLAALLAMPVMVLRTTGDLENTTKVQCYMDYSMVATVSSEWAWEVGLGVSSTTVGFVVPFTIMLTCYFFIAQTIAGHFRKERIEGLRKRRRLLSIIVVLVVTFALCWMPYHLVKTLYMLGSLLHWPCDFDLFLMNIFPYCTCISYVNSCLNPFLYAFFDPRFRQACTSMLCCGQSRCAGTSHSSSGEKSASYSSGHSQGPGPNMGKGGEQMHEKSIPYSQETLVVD
# Molecular target: T1, full-length human APLNR (amino acids …)
# Assay: cell-based or functional assay
row,Binder,"EC50 (M), CRE assay (cAMP reporter) in HEK293/CRE-luc/hAPLNR cells"
1,RPRLSHKGPM [Apelin66-75],2.17e-12 M
2,RPRLSHKGPMP [Apelin66-76],5.19e-12 M
3,PRLSHKGPM [Apelin67-75],3.74e-07 M
4,PRLSHKGPMP [Apelin67-76],1.14e-13 M

# The remaining lines, values ahead:
row,"EC50 (M), CRE assay (cAMP reporter) in HEK293/CRE-luc/hAPLNR cells",Binder
1,4.38e-10 M,PRLSHKGPMPF [Apelin-11]
2,1.47e-10 M,QRPRLSHKGPMPFGGGGG [Apelin-13 + 5G]
